Each block holds one binder with its values, some of them ahead of it.
What was measured:
[1] = biological target: T1, human FcγRIIa R extracellular domain (human, UniProt P12318 34-217); assay: SPR Biacore 8K+; KD for FcγRIIb divided by KD for this FcγR;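 further: antibodies captured on an anti-human Fab kappa SA chip with soluble human FcγR ectodomains flowed over, FcγRIIb KD from steady-state fit, other FcγR KD from Langmuir model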
T1 construct: extracellular domain; also called hFcγR IIa R
T1 sequence (looked up): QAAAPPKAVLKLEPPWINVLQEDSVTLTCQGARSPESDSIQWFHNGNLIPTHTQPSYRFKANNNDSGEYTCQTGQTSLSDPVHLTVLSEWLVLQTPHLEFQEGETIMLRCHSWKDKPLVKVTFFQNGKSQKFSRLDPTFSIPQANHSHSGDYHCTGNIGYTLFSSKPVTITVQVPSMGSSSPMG

[2] = biological target: T2, human FcγRIIIa V extracellular domain (human, UniProt P08637 17-208); assay: as above
T2 construct: extracellular domain; also called hFcγR IIIa V

[3] = biological target: T3, human FcγRIIIa F extracellular domain (human, UniProt P08637 17-208); assay: as above
T3 construct: extracellular domain; also called hFcγR IIIa F

[4] = biological target: T4, human FcγRIIa H extracellular domain (human, UniProt P12318 34-217); assay: as above
T4 construct: extracellular domain; also called hFcγR IIa H
T4 sequence (looked up): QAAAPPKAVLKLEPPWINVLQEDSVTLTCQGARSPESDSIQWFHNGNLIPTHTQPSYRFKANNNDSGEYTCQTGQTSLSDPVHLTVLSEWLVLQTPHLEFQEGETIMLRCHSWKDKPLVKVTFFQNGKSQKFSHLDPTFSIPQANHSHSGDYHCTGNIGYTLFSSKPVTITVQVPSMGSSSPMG

[5] = biological target: T5, hFcγRIIaH on hFcγRIIaH-expressing Jurkat cells (human, UniProt P12318 34-317); assay: cell-based or functional assay
T5 sequence (looked up): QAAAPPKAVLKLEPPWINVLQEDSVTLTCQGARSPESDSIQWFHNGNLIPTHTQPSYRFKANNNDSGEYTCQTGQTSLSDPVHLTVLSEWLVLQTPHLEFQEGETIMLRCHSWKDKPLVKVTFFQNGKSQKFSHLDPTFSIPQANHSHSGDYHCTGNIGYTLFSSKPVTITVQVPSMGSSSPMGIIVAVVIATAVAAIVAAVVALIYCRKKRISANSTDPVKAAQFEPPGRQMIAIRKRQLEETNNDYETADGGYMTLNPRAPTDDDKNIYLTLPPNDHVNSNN

[6] = biological target: T2, human FcγRIIIa V extracellular domain; assay: SPR Biacore 8K+, antibody captured, FcγR as analyte, 1:1 Langmuir model; hFcγR IIIa V allotype
[7] = biological target: T3, human FcγRIIIa F extracellular domain; assay: SPR Biacore 8K+, antibody captured, FcγR as analyte, 1:1 Langmuir model; hFcγR IIIa F allotype
[8] = biological target: T6, human FcγRIIb extracellular domain (human, UniProt P31994 43-217); assay: SPR Biacore 8K+, antibody captured, FcγR as analyte, steady state affinity model
T6 construct: extracellular domain; also called hFcγR IIb
T6 sequence (looked up): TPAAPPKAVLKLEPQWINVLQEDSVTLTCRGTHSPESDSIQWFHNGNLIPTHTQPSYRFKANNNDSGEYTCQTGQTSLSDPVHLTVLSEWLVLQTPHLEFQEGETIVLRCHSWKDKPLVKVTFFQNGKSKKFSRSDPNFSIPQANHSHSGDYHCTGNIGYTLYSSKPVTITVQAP

[9] = biological target: T1, human FcγRIIa R extracellular domain; assay: SPR Biacore 8K+, antibody captured, FcγR as analyte, 1:1 Langmuir model;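 further: antibodies captured on a streptavidin chip through a biotinylated anti-human Fab kappa reagent, with FcγR extracellular domains injected in pH 7.4 phosphate buffer at 25 °C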
[10] = biological target: T7, human FcγRIa extracellular domain (human, UniProt P12314 16-292); assay: as above
T7 construct: extracellular domain; also called hFcγR Ia; hFcγRIa

[11] = biological target: T4, human FcγRIIa H extracellular domain; assay: as above
[12] = biological target: T1, human FcγRIIa R extracellular domain; assay: SPR Biacore 8K+; KD of G1d divided by KD of this antibody;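 further: antibodies captured on an anti-Fab-kappa streptavidin chip, soluble FcγR ectodomains flowed over, KD by steady-state fit for FcγRIIb and Langmuir kinetic model for the other receptors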
[13] = biological target: T7, human FcγRIa extracellular domain; assay: as above
[14] = biological target: T2, human FcγRIIIa V extracellular domain; assay: as above
[15] = biological target: T3, human FcγRIIIa F extracellular domain; assay: as above
[16] = biological target: T4, human FcγRIIa H extracellular domain; assay: as above
[17] = biological target: T6, human FcγRIIb extracellular domain; assay: as above
[18] = biological target: hFcγRIIIaV on hFcγRIIIaV-expressing Jurkat cells (human, UniProt P08637 17-254); assay: cell-based or functional assay
human CTLA4 [19] = biological target: T8, human CTLA4 (human); assay: SPR, 37C, antibody captured by anti-mouse IgG, ATP 10 uM
T8 construct: also called hCTLA4; hCTLA4-His-BAP

human CTLA4 [20] = biological target: T8, human CTLA4; assay: SPR, 37C, antibody captured by anti-mouse IgG, ATP 100 uM
human CTLA4 [21] = biological target: T8, human CTLA4; assay: SPR, 37C, antibody captured by anti-mouse IgG, ATP 1 uM
[22] = biological target: T9, mCTLA4-His (mouse CTLA4 extracellular region linked with a His-tag) (mouse, UniProt P09793 36-161); assay: SPR 37C, ATP 100 µM
[23] = biological target: T9, mCTLA4-His (mouse CTLA4 extracellular …); assay: SPR 37C, ATP 10 µM
[24] = biological target: T9, mCTLA4-His (mouse CTLA4 extracellular …); assay: SPR 37C, ATP 100 µM; remark: listed apart in the source

T8 sequence (chain, as listed by the source limits assumed): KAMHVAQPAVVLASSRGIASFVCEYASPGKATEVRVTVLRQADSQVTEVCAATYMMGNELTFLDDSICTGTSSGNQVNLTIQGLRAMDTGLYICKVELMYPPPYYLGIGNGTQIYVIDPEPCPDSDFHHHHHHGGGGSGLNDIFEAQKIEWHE
T2 sequence (P08637 17-208 F176V limits assumed): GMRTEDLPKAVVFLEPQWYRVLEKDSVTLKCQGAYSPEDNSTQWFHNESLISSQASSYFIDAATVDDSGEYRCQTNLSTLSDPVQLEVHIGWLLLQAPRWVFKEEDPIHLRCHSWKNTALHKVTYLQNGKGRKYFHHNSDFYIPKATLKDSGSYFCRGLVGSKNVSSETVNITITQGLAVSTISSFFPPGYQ
T3 sequence (P08637 17-208): as the sequence (P08637 17-208 F176V limits assumed) above, with V160F counted along it
T7 sequence (P12314 16-292): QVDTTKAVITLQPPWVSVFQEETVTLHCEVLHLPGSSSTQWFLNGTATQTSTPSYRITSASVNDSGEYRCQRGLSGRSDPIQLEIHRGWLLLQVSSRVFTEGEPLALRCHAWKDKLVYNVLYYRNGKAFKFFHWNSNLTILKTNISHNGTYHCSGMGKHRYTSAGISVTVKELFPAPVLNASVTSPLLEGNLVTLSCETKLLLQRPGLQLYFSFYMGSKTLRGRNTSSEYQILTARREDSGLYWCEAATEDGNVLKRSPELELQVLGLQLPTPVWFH
Chain of hFcγRIIIaV on hFcγRIIIaV-expressing Jurkat cells (P08637 17-254, form in doubt): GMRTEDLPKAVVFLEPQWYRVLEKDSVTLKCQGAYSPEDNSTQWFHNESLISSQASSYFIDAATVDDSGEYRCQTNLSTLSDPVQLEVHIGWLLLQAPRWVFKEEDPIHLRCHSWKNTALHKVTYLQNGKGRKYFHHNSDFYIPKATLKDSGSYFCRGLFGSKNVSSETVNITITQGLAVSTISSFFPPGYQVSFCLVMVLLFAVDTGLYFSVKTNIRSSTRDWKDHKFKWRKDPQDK

A/I ratio (KD for FcγRIIb divided by KD for each FcγR) [1]: 18.6
A/I ratio (KD for FcγRIIb divided by KD for each FcγR) [2]: 52.6
A/I ratio (KD for FcγRIIb divided by KD for each FcγR) [3]: 18.9
A/I ratio (KD for FcγRIIb divided by KD for each FcγR) [4]: 18.2
EC50 value (hFcγRIIaH ADCP Reporter Bioassay, Hepa1-6/hEREG target cells) [5]: 14.9 ng/mL
Kd [6]: 23.8 nM
Kd [7]: 66.1 nM
Kd [8]: 1250 nM
Kd [9]: 67 nM
Kd [10]: 0.0145 nM
Kd [11]: 68.6 nM
Relative value to KD between G1d and hFcgRs [12]: 24.7
Relative value to KD between G1d and hFcgRs [13]: 6.2
Relative value to KD between G1d and hFcgRs [14]: 15.1
Relative value to KD between G1d and hFcgRs [15]: 44.7
Relative value to KD between G1d and hFcgRs [16]: 16.4
Relative value to KD between G1d and hFcgRs [17]: 8
EC50 value (hFcγRIIIaV ADCC Reporter Bioassay, Hepa1-6/hEREG target cells) [18]: 3.7 ng/mL
B1: H240-Kn037/L73-k0//H240-Hl036/L73-k0 (antibody, human IgG1, kappa)
heavy 1: QDQLVQSGAEVKKPGASVKVSCKASGFNIKDTYIQWVRQAPGQGLEWMGRIDPLRKQTKYREKFEGRVTITADTSTNTAYMELSSLRSEDTAVYYCVRSGREFDYWGQGTLVTVSSASTKGPSVFPLAPSSKSTSGGTAALGCLVKDYFPEPVTVSWNSGALTSGVHTFPAVLQSSGLYSLSSVVTVPSSSLGTQTYICNVNHKPSNTKVDKKVEPKSCDKTHTCPPCPAPELLAGPDVFLFPPKPKDTLMISRTPEVTCVVVDVSHEDPEVKFNWYVDGVEVHNAKTKPREEQYNSTYRVVSVLTVLHQDWLNGKEYKCKVSNKALPAPEEKTISKAKGQPREPQVCTLPPSRDELTKNQVSLWCLVKGFYPSDIAVEWESNGQPENNYKTTPPVLDSDGSFFLYSKLTVDKSRWQQGNVFSCSVMHEALHNHYTQKSLSLSP
heavy 2: QDQLVQSGAEVKKPGASVKVSCKASGFNIKDTYIQWVRQAPGQGLEWMGRIDPLRKQTKYREKFEGRVTITADTSTNTAYMELSSLRSEDTAVYYCVRSGREFDYWGQGTLVTVSSASTKGPSVFPLAPSSKSTSGGTAALGCLVKDYFPEPVTVSWNSGALTSGVHTFPAVLQSSGLYSLSSVVTVPSSSLGTQTYICNVNHKPSNTKVDKKVEPKSCDKTHTCPPCPAPELLAGPDVFLFPPKPKDTLMISRTPEVTCVVVDVSHEDPEVKFNWYVDGVEVHNAKTKPREEQYNSTYRVVSVLTVLHQDWLNGKEYKCKVSNKALPAPEEKTISKAKGQPREPQVYTLPPSRCELTKNQVSLSCAVKGFYPSDIAVEWESNGQPENNYKTTPPVLDSDGSFFLVSKLTVDKSRWQQGNVFSCSVMHEALHNHYTQKSLSLSP
light: DIQMTQSPSSLSASVGDRVTITCRASQDIHKYIAWYQQKPGQAPRLLIQYTSTLQPGVPSRFSGSGSGTDYTFTISSLQPEDIATYYCLQYEQLRTFGGGTKVEIKRTVAAPSVFIFPPSDEQLKSGTASVVCLLNNFYPREAKVQWKVDNALQSGNSQESVTEQDSKDSTYSLSSTLTLSKADYEKHKVYACEVTHQGLSSPVTKSFNRGEC
notes: also called EGL-GASDIE; GASDIE

Kd (human CTLA4 [19]): 18 nM
Kd (human CTLA4 [20]): 8.9 nM
Kd (human CTLA4 [21]): 51 nM
B2: 04H1389-mFa55/04L1305-mk1 (antibody, mouse IgG2a, kappa)
heavy: EVQLVESGGGLVKPGGSLRLSCAASGFTFSSKTMNWVRQAPGKGLEWVSSISTQSHYIYYAESVKGRFTISRDNAKNSLYLQMNSLRAEDTAVYYCARYGKREDMLWVFDYWGQGTLVTVSSAKTTAPSVYPLAPVCGDTTGSSVTLGCLVKGYFPEPVTLTWNSGSLSSGVHTFPAVLQSDLYTLSSSVTVTSSTWPSQSITCNVAHPASSTKVDKKIEPRGPTIKPCPPCKCPAPNLLGGPDVFIFPPKIKDVLMISLSPIVTCVVVDVSEDDPDVQISWFVNNVEVHTAQTQTHREDYNSTLRVVSALPIQHQDWMSGKEFKCKVNNKDLPAPIERTISKPKGSVRAPQVYVLPPPEEEMTKKQVTLTCMVTDFMPEDIYVEWTNNGKTELNYKNTEPVLDSDGSYFMYSKLRVEKKNWVERNSYSCSVVHEGLHNHHTTKSFSRTPGK
light: DIVMTQSPLSLPVTPGEPASISCDGPSTGVGDYNYVHWYQQKPGQAPRLLIYFTSKKPSGVPDRFSGSGSGTDFTLKISRVEAEDVGVYYCQTYAAPLGPMFGQGTKLEIKRADAAPTVSIFPPSSEQLTSGGASVVCFLNNFYPKDINVKWKIDGSERQNGVLNSWTDQDSKDSTYSMSSTLTLTKDEYERHNSYTCEATHKTSTSPIVKSFNRNEC
notes: Mouse constant regions mFa55 and mk1; also called SW1389-mFa55

Kd [22]: 16 nM
Kd [23]: 84 nM
fold weaker than its binding ability to human CTLA4 [24]: ~2 times
B3: 04H1208-G1m/04L1407-k0MT (antibody, human IgG1, kappa, V domains shown)
VH: EVQLVESGGGLVKPGGSLRLSCAASGFTFSSKTMNWVRQAPGKGLEWVSSISTRSGYIYYARSVKGRFTISRDNAKNSLYLQMNSLRAEDTAVYYCARYGKREDMLWVFDYWGQGTLVTVSS
VL: DIVMTQSPLSLPVTPGEPASISCDGPSTDVGDYNWVHWYQQKPGQAPRLLIYYTSSKPEGVPDRFSGSGSGTDFTLKISRVEAEDVGVYYCQTYAAPLGPTFGQGTKLEIKR

From patent publication US20260022175A1 (Chugai, published 2026)
